Data: US20190023807A1 (CRESCENDO BIOLOGICS, published 2019)
Residue numbers refer to the chain shown, from its start.

B1: HiPEG D-His6 val-cit-PAB-MMAE (other)
VH: EVQLLESGGGLVQPGGSLRLSCAASGFRISDEDMGWVRQAPGKGLEWVSSIYGPSGSTYYADSVKGRFTISRDNSKNTLYLQMNSLRAEDTAVYYCASALEPLSEPLGFWGQGTLVTVSSAAAHHHHHH
modifications: HiPEG val-cit-PAB-MMAE attached via the C-terminal His6 tag
B2: 1.11-6GS-2.1 (bispecific antibody, not shown: small tags and cut ends)
chain: EVQLLESGGGLVQPGGSLRLSCAASGFSFSSYALSWVRQAPGKGLEWVSSIGENNDTTDYADNVKGRFTISRDNSKNTLYLQMNSLRVEDTAVYYCVKDGVHWGQGTLVTVSSGGGGSGGGGSGGGGSGGGGSGGGGSGGGGSEVQLVESGGGVVQPGRSLRLSCAASGFSFSGYGMHWVRQAPGKGLEWVAYISYDGSNKYYADSVKGRFTISRDNSKNTLYLQMNSLRAEDTAVYYCAKDPAWGLRLGESSSYDFDIWGQGTMVTVSS
B3: 1.16-6GS-2.1 (bispecific antibody, not shown: small tags and cut ends)
chain: B2 chain with D56H, N63T
B4: 1.16-6GS-2.15 (bispecific antibody, not shown: small tags and cut ends)
chain: B2 chain with D56H, N63T, M177L, G198K, S206K
B5: 1.1-6GS-2.22 (bispecific antibody, not shown: small tags and cut ends)
chain: B2 chain with L34M, N55D, D56G, N63S, N77S, T78M, M177T, D205A, S206P, P243A
B6: 1.18-6GS-2.17 (bispecific antibody, not shown: small tags and cut ends)
chain: B2 chain with D56A, D62A, N63S, G198A, S206N
B7: 1.16-6GS-2.17 (bispecific antibody, not shown: small tags and cut ends)
chain: B2 chain with D56H, N63T, G198A, S206N
B8: 1.18-6GS-2.15 (bispecific antibody, not shown: small tags and cut ends)
chain: B2 chain with D56A, D62A, N63S, M177L, G198K, S206K
B9: 1.1-6GS-2.1 (bispecific antibody, not shown: small tags and cut ends)
chain: B2 chain with L34M, N55D, D56G, N63S, N77S, T78M
B10: 1.18-6GS-2.22 (bispecific antibody, not shown: small tags and cut ends)
chain: B2 chain with D56A, D62A, N63S, M177T, D205A, S206P, P243A
B11: 1.1-6GS-2.15 (bispecific antibody, not shown: small tags and cut ends)
chain: B2 chain with L34M, N55D, D56G, N63S, N77S, T78M, M177L, G198K, S206K
B12: 1.11-6GS-2.22 (bispecific antibody, not shown: small tags and cut ends)
chain: B2 chain with M177T, D205A, S206P, P243A
B13: 1.11-6GS-2.17 (bispecific antibody, not shown: small tags and cut ends)
chain: B2 chain with G198A, S206N
B14: 1.16-6GS-2.22 (bispecific antibody, not shown: small tags and cut ends)
chain: B2 chain with D56H, N63T, M177T, D205A, S206P, P243A
B15: 1.18-6GS-2.1 (bispecific antibody, not shown: small tags and cut ends)
chain: B2 chain with D56A, D62A, N63S
B16: 1.1-6GS-2.17 (bispecific antibody, not shown: small tags and cut ends)
chain: B2 chain with L34M, N55D, D56G, N63S, N77S, T78M, G198A, S206N
B17: 1.11-6GS-2.15 (bispecific antibody, not shown: small tags and cut ends)
chain: B2 chain with M177L, G198K, S206K
B18: single VH domain antibody 8.1 (VHH)
VHH: QVQLQQWGAGLLKPSETLSLTCAVYGGSFSGYYWSWIRQPPGKGLEWIGEINHSGSTNYNPSLKSRVTISVDTSKNQFSLKLSSVTAADTAVYYCARGPIPATAIPDAFDIWGQGTMVTVSS
notes: human single VH domain (Humabody); not shown: C-terminal His tag
B19: single VH domain antibody 9.1 (VHH)
VHH: QVQLQQWGAGLLKPSETLSLTCAVYGGSFSGHYWSWIRQPPGKGLEWIGDINHSGSTNYNPSLKSRVTISVDTSKNQFSLKLSSVTAADTAVYYCVRDYGDSRSLFDYWGQGTLVTVSS
notes: as for B18

What was measured:
[1] = target: T1, human PSMA (prostate specific membrane antigen), full-length, expressed on cells (human, UniProt Q04609 1-750); assay: cell-based or functional assay
T1 sequence (Q04609 whole entry): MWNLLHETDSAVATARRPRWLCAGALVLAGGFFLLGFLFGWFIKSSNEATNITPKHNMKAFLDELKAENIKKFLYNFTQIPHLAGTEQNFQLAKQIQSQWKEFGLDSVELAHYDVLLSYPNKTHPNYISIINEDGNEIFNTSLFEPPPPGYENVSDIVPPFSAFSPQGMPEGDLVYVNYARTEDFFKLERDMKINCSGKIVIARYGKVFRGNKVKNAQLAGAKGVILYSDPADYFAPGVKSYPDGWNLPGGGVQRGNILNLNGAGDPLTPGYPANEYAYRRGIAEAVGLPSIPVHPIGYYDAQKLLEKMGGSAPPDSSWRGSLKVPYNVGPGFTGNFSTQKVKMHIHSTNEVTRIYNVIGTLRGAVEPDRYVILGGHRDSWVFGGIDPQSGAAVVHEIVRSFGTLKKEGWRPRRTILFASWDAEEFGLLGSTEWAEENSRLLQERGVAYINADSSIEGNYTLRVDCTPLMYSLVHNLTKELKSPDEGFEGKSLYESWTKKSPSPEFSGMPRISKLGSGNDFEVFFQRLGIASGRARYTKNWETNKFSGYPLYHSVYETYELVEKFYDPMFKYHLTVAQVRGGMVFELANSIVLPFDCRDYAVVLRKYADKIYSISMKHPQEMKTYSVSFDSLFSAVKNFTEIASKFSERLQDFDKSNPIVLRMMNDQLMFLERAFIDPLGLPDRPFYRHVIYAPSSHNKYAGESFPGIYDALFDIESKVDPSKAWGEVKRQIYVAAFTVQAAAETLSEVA

[2] = target: T1, human PSMA (prostate specific membrane …); assay: cell-based or functional assay; remark: listed apart in the source
[3] = target: T1, human PSMA (prostate specific membrane …); assay: cell-based or functional assay; remark: listed apart in the source
[4] = target: cynomolgus PSMA, full-length, expressed on CHO cells (cynomolgus, UniProt A0A2K5VNZ0 1-750); assay: cell-based or functional assay
[5] = target: T2, recombinant human PSMA (R&D, cat. no. 4234-ZN) (human, UniProt Q04609 44-750); assay: periprep/phage screen, rhPSMA
T2 construct: also called rhPSMA; Recombinant PMSA
T2 sequence (Q04609 44-750 limits assumed): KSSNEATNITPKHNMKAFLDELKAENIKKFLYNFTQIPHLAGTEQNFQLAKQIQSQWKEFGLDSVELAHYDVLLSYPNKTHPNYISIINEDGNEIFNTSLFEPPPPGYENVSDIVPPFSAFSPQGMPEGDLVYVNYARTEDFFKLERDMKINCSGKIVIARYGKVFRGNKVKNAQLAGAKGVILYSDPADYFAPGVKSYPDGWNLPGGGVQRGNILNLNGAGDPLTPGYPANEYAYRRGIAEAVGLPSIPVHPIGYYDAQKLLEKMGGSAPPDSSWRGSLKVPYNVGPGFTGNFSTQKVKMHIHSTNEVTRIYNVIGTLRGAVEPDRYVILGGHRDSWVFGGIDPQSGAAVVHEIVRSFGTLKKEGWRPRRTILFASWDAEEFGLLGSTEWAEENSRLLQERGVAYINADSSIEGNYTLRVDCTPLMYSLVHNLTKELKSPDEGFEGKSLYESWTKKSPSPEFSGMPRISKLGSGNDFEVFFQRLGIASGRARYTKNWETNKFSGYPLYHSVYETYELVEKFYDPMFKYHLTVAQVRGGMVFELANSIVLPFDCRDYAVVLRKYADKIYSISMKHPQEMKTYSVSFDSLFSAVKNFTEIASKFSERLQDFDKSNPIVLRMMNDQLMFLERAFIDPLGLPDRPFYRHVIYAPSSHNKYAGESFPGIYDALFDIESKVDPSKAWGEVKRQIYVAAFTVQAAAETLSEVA

| Binder | His-ZAP cell killing, human PSMA Average EC50 [3] [nM] | His-ZAP cell killing, cyno PSMA Average EC50 [4] [nM] | also measured |
| --- | --- | --- | --- |
| B1 | – | – | PSMA-DU145 cytotoxicity assay (72 h), IC50 [1]: > 100 nM; PSMA-DU145 cytotoxicity assay (72 h), IC50 (toxin) [1]: > 100 nM; cytotoxicity on PSMA-DU145, 48 h, Mean IC50 [2]: > 300 nM |
| B2 | 0.017 | 0.012 | – |
| B3 | 0.014 | 0.013 | – |
| B4 | – | 0.011 | – |
| B5 | – | 0.0078 | – |
| B6 | 0.012 | 0.0056 | – |
| B7 | 0.015 | 0.011 | – |
| B8 | – | 0.01 | – |
| B9 | – | 0.012 | – |
| B10 | 0.015 | 0.014 | – |
| B11 | – | 0.0086 | – |
| B12 | 0.01 | 0.0095 | – |
| B13 | 0.0079 | 0.0081 | – |
| B14 | 0.02 | 0.011 | – |
| B15 | 0.0057 | 0.0058 | – |
| B16 | – | 0.011 | – |
| B17 | – | 0.009 | – |
| B18 | – | – | binding result [5]: no binding |
| B19 | – | – | binding result [5]: no binding |
